Results from patent US20240182592A1 (CHIA TAI TIANQING PHARMACEUTICAL GROUP, published 2024).

Experiments:
[1] = molecular target: T1, human BCMA on cells (human, UniProt Q02223 1-184); assay: cell-based or functional assay
T1 sequence (looked up): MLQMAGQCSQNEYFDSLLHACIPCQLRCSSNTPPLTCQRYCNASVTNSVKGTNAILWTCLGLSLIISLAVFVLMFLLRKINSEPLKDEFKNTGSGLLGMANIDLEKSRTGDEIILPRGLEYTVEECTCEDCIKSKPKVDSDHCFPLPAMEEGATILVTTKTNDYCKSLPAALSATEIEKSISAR

[2] = molecular target: T1, human BCMA on cells; assay: cell-based or functional assay; remark: listed apart in the source
[3] = molecular target: T1, human BCMA on cells; assay: cell-based or functional assay; remark: listed apart in the source
[4] = molecular target: T1, human BCMA on cells; assay: flow cytometry, MM1S cells
Method: (§1) NCI-H929 cells (BCMA+++), MM1S cells (BCMA++), and RPMI-8226 cells (BCMA+) in the logarithmic growth phase were taken, adjusted to a cell density of 5×10⁶-10×10⁶ cells/mL using RPMI medium (Hyclon, catalog No. SH30809.01) containing 2% FBS (fetal bovine serum), respectively, and seeded in a 96-well U-bottom cell culture plate (Costar, catalog No. 3799) at 50 μL per well. The test antibodies at different concentrations were prepared using the medium described above. […] The antibodies at different concentrations were added to the 96-well cell culture plate described above at 50 μL per well, mixed well and incubated at 4° C. for 1 h. The cells were washed with pre-cooled running buffer (MACS, catalog No. 130-091-221), and the supernatant was discarded. Pre-cooled fluorescent labeled goat anti-human IgG antibodies (Jackson, catalog No. 109-116-170) were added, and the cells were resuspended at 100 μL per well, mixed well and incubated at 4° C. for 30 min. After washing, 100 μL of pre-cooled running buffer was added to resuspend the cells. The cells were mixed well and collected while flowing on an Attune™ NxT flow cytometer, and the data was analyzed using Graphpad Prism5 software. FIGS. 7-9 and Table 11 show the binding ability of the anti-BCMA/anti-CD3 multispecific antibodies to NCI-H929 cells (BCMA+++), MM1S cells (BCMA++), and RPMI-8226 cells (BCMA+).

[5] = molecular target: T1, human BCMA on cells; assay: flow cytometry, NCI-H929 cells
Method: as §1

[6] = molecular target: T2, T cell surface CD3 (human, UniProt P07766 23-207); assay: flow cytometry, human CD3+ T cells
T2 construct: whole, on cells; also called CD3^+ T cells
T2 sequence (P07766 23-207): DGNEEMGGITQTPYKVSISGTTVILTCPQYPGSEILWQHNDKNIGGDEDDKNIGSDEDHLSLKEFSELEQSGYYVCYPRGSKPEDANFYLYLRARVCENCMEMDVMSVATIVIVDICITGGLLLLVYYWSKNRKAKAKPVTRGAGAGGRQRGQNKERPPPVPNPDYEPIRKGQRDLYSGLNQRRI
Method: Human PBMC cells were sorted for CD3⁺ T cells using CD3 magnetic beads (Miltenyi, catalog No. 130-097-043): the cryopreserved PBMCs were thawed, and washed by centrifugation twice for counting. Running buffer (MACS, catalog No. 130-091-221) was added in a cell-to-buffer ratio of 10⁷:80 μL, CD3 beads were added in a cell-to-bead ratio of 10⁷:20 μL, and the mixture was mixed well and incubated at 4° C. for 15 min. The cells were washed with buffer in a cell-to-buffer ratio of 10⁷:1-2 mL. After centrifugation, the supernatant was discarded, and 500 μL of buffer was added to resuspend the cell pellet. The LS sorting column (Miltenyi, catalog No. 130-042-401) was placed on the MidiMACS Starting Kit (LS) magnetic rack (Miltenyi, catalog No. 130-091-051). After rinsing, the cell suspension was added and washed thrice. The LS sorting column was removed from the magnetic rack and placed on a clean centrifuge tube and 5 mL buffer was added to collect the sorted CD3⁺ T cells. After counting, the CD3⁺ T cells were adjusted to a cell density of 5×10⁶-10×10⁶ cells/mL using RPMI medium (Hyclone, catalog No. SH30809.01) containing 2% FBS (fetal bovine serum) and seeded in a 96-well U-bottom cell culture plate (Costar, catalog No. 3799) at 50 μL per well. The test antibodies at different concentrations were prepared using the medium described above. […] The antibodies at different concentrations were added to the 96-well cell culture plate described above at 50 μL per well, mixed well and incubated at 4° C. for 1 h. The cells were washed with pre-cooled running buffer (MACS, catalog No. 130-091-221), and the supernatant was discarded. Pre-cooled fluorescent labeled goat anti-human IgG antibodies (Jackson, catalog No. 109-116-170) were added, and the cells were resuspended at 100 μL per well, mixed well and incubated at 4° C. for 30 min. After washing, 100 μL of pre-cooled running buffer was added to resuspend the cells.

[7] = molecular target: T1, human BCMA on cells; assay: flow cytometry on RPMI-8226 cells, fluorescent goat anti-human IgG detection
Method: as §1

[8] = molecular target: T3, human BCMA protein (human, UniProt Q02223 1-54, limits assumed); assay: SPR (Biacore T200), antibody captured by anti-hIgG, human BCMA as analyte, 1:1 model
T3 construct: also called hBCMA; Antigen BCMA
T3 sequence (looked up): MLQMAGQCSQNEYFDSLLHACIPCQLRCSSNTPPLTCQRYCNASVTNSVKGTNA
Method: (§2) The affinity of the test antibody for human CD3e or human BCMA protein was determined by Biacore T200 (GE) as follows:
(§3) The response signals were detected in real time using Biacore software, and association and dissociation curves were obtained. The buffer used in the experiment was Biacore universal buffer (137 mM NaCl, 2.7 mM KCl, 10 mM Na₂HPO₄.12H₂O, 1.8 mM KH₂PO₄. 0.05% surfactant P-20 (w/v), pH 7.4). […] The flow rate in the flow cell was at 50 μL/min, the association was performed for 240 s, the dissociation was performed for 1400 s, the regeneration was performed using 3 M MgCl (GE) for 60 s, and the baseline was stable. Results were obtained by calculation according to the affinity and kinetics 1:1 binding mode in biacore evaluation software.

[9] = molecular target: T4, human CD3e (Acro, Cat. No. CDE-H5223) (human, UniProt P07766 23-126); assay: SPR (Biacore T200), antibody captured by anti-hIgG, human CD3e as analyte, 1:1 model
T4 construct: also called human CD3e protein; hCD3e
T4 sequence (P07766 23-126 limits assumed): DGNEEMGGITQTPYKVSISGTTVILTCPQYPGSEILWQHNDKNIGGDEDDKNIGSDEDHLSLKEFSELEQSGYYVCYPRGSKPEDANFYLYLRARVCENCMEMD
Method: as §2, §3

B1: anti-BCMA/anti-CD3 multispecific antibody PC2 (bispecific antibody, human IgG1)
chain 1: QVQLVESGGGLVQPGGSLRLSCAASGYSSNVACMAWYRQAPGKGLEWVATIVADFGTTNYAASVKGRFTISQDNSKNTVYLQMNSLRAEDTAVYYCAATQRGGIDWCDEINYWGQGTLVTVSSGEPKSSDKTHTCPPCPAPEAAGGPSVFLFPPKPKDTLMISRTPEVTCVVVDVSHEDPEVKFNWYVDGVEVHNAKTKPREEQYNSTYRVVSVLTVLHQDWLNGKEYKCKVSNKALAAPIEKTISKAKGQPREPQVCTLPPSREEMTKNQVSLSCAVKGFYPSDIAVEWESNGQPENNYKTTPPVLDSDGSFFLVSKLTVDKSRWQQGNVFSCSVMHEALHNHYTQKSLSLSPGK
chain 2: QVQLVESGGGLVQPGGSLRLSCAASGFTFNSACMGWFRQAPGKGREGVSRIETGYGGTVYADSVKGRFTISRDNSKNTVYLQMNSLRAEDTAVYYCAAKRSWCTPTWWHELDYNYWGQGTQVTVSSGGGGSELVVTQEPSLTTSPGGTVTLTCRSSTGAVTTSNYANWVQQKPGQAPRGLIGGTNKRAPGTPARFSGSLLGGKAALTITGVQPEDEAEYYCALWYSNLWVFGGGTKLTVLGGGGSGGGGSGGGGSEVQLVESGGGLVQPGGSLRLSCAASGFTFNTYAMNWVRQAPGKGLEWVARIRSKYNNYATYYADSVKDRFTISRDDSKNTAYLQMNNLKTEDTAMYYCVRHGNFGNSYVSWFAYWGQGTLVTVSSGEPKSSDKTHTCPPCPAPEAAGGPSVFLFPPKPKDTLMISRTPEVTCVVVDVSHEDPEVKFNWYVDGVEVHNAKTKPREEQYNSTYRVVSVLTVLHQDWLNGKEYKCKVSNKALAAPIEKTISKAKGQPREPQVYTLPPCREEMTKNQVSLWCLVKGFYPSDIAVEWESNGQPENNYKTTPPVLDSDGSFFLYSKLTVDKSRWQQGNVFSCSVMHEALHNRFTQKSLSLSPGK
notes: Trivalent; two chains; human IgG1 knobs-into-holes Fc
With B1 the “Lysis EC50, NCI-H929 cells with human PBMCs (E:T 10:1, 24 h, LDH release)” value [1] was 0.527 nM, the “Maximum lysis rate, NCI-H929 cells with human PBMCs” value [1] was 38% and the “Lysis EC50, MM1S cells with human PBMCs (E:T 10:1, 24 h, LDH release)” value [2] was 0.0605 nM. For the same binder, the “Maximum lysis rate, MM1S cells with human PBMCs” value [2] was 28%, the “Lysis EC50, RPMI-8226 cells with human PBMCs (E:T 10:1, 24 h, LDH release)” value [3] was 0.0185 nM and the “Maximum lysis rate, RPMI-8226 cells with human PBMCs” value [3] was 39%. The EC50 [4] was 0.311 nM, the “Top(MFI)” value [4] was 115000 MFI and the EC50 [5] was 1.03 nM. For the same binder, the “Top(MFI)” value [5] was 234000 MFI, the EC50 [6] was about 462 nM and the “Top(MFI)” value [6] was 37200 MFI. The “EC50 (read off the curve)” value [7] was about 0.3 nM, the Kd [8] was 0.0185 nM and the Kd [9] was 1.33 nM.
